Experimental data reported in paper PMC4689532.
pKd: −log10 of the molar value.

Key:
Assay in all cases: SPR; Biacore T100, 37°C, HBS-EP; biotinylated ligand captured with the Biotin CAPture Kit, reference biotinylated rat Cd4d3+4; purified his-tagged analyte injected at 20 μl/min, equilibrium fit Req = CRmax/(C+KD); lower concentrations did not reach equilibrium, KD likely slightly overestimated
[1] = target: P. vivax P12 (PVX_113775, 6-cysteine protein), entire ectodomain, AVEXIS bait/prey form (P. vivax) (UniProt A5K1W7)
[2] = target: P. vivax P41 (PVX_000995, 6-cysteine protein), entire ectodomain, AVEXIS bait/prey form (P. vivax) (UniProt A5KAP6)
[3] = target: P. falciparum P41, AVEXIS bait/prey form (P. falciparum)

## P. vivax P41 (PVX_000995), entire ectodomain, 6-His tagged, purified (from UniProt A5KAP6 22-384) (domain or fragment)
[1]
  pKd: 7.11

## P. vivax P12 (PVX_113775), entire ectodomain, 6-His tagged, purified (from UniProt A5K1W7 24-339) (domain or fragment)
[2]
  pKd: 6.92
[3]
  pKd: 7.51
